In patent US20230212305A1, “ANTI-ABCG2 ANTIBODIES AND USES THEREOF” (Kenjockety Biotechnology, Inc., priority 2020, published 2023):
“Also recorded” adds a separate entry of the source.

T1: ABCG2 (Homo sapiens, UniProt Q9UNQ0)
T1 construct: expressed in transfected cells
T1 sequence (Q9UNQ0 1-655): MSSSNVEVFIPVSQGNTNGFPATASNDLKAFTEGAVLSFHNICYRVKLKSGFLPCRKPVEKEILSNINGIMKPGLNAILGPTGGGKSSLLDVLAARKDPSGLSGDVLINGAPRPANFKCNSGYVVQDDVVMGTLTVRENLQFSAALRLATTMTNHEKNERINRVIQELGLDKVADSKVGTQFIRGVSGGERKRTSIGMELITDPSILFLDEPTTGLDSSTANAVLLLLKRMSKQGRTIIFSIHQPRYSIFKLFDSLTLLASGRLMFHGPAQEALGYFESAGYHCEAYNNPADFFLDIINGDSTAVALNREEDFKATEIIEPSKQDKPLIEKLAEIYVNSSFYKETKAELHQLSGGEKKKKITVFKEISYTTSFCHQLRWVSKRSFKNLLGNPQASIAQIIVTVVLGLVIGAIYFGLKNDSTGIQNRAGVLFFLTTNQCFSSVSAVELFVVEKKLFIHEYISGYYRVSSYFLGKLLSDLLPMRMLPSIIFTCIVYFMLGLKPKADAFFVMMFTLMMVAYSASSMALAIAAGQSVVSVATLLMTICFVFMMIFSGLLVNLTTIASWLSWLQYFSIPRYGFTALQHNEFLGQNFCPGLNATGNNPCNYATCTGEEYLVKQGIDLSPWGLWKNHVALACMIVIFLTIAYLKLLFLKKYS


What was measured:
ABCG2 [1] = biological target: T1, ABCG2; test: Flow cytometry binding to 293T cells overexpressing human ABCG2 (293T_ABCG2_OX); set-up: key to Binding by FACS: binding=“+”; non-significant binding=“−”; details: for binding to 293T cells overexpressing human ABCG2: in words, FIGS. 7-11, 21
Description: (§1) Cell Binding Assays. Antibody binding to cells was evaluated by flow cytometry. 293T cells stably transfected to express human or cynomolgus ABCG2 (293T_ABCG2_OX) were washed once in flow cytometry buffer (PBS+2% FBS+0.02% sodium azide), resuspended at 2×10^6 cells/mL in flow cytometry buffer, and dispensed into 96-well microtiter plates at 0.1 mL/well. Recombinant antibodies were added to cells at 5 ug/mL for initial binding confirmation, or serially diluted from 100 ug/mL in flow cytometry buffer. After incubating cells on ice for 30 min, cells were washed twice with flow cytometry buffer. Bound antibody was detected with PE-labeled F(ab′)2 fragment goat anti-human IgG (Jackson ImmunoResearch) and evaluated on an Attune NxT flow cytometer. EC50 is calculated to be the concentration of antibody that gives half maximal response.

cynomolgus ABCG2 = test: Flow cytometry binding to 293T cells overexpressing cynomolgus ABCG2; set-up: key to Cynomolgus ABCG2 binding: binding=“+”; non-significant binding=“−”; details: for binding to 293T cells overexpressing cynomolgus ABCG2: in words, FIGS. 7-11, 21
Sequence of cynomolgus ABCG2 (as listed by the source): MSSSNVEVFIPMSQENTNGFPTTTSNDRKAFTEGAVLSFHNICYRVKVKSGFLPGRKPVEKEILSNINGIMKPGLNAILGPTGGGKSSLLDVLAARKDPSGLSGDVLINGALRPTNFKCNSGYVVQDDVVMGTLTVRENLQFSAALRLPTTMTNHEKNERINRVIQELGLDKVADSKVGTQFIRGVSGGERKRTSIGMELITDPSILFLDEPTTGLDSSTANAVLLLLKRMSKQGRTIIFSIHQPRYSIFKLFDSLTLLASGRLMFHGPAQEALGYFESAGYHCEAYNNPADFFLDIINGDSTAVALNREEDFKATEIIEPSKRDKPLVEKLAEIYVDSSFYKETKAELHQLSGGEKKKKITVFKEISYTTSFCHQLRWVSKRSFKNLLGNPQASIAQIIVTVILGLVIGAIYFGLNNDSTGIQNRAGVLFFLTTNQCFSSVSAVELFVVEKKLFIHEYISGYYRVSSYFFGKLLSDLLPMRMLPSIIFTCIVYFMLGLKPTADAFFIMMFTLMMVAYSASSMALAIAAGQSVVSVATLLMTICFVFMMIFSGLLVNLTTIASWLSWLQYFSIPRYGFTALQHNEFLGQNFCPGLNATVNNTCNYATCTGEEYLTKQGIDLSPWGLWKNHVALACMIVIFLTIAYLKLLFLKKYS
Description: as §1

ABCG2 [2] = biological target: T1, ABCG2; assay type: cell-based
Description: 293T_ABCG2_OX cells were washed several times and aliquoted into 96-well plates as 50 μl aliquots/well at a cell density of 2×10e6 cells per ml in phenol red-free DMEM. Cells were mixed with 50 μl antibodies or the small molecule inhibitors of ABCG2:-fumitremorgin C (FTC), or its tetracyclic analogue K0143, with a final concentration of 1 μM. Cells were then incubated in the presence of 2.5 μM Mitoxantrone 1 h at 37° C. The cells were subsequently washed twice and finally resuspended in […] PBS. Mitoxantrone fluorescence was measured using excitation at 635 nm and emission at 647 nm. Protocols was measuring efflux blockade are found in Szabo E, et al., PLoS One. 2018 Jan. 17; 13(1):e0190629; Deeken J F, et al., Mol Pharmacol. 2009 November; 76(5):946-56).

293T_ABCG2_OX cells = assay type: cell-based, human; details: for Killing: cell killing by topotecan on 293T_ABCG2_OX cells, viability relative to IgG control
Description: Cytotoxicity Assays. The effect of antibodies on topotecan cytotoxicity was evaluated on 293T_ABCG2_OX cells, 293T cells stably transfected to express ABCG2. Cells were plated in 0.05 mL of Assay Media (DMEM+10% FBS) at 5000 cells/well in white, flat bottom 96-well tissue culture plates. Topotecan was prepared at 2× final assay concentration by serial dilution from 200 uM in assay media containing test antibodies or control antibodies at 100 ug/mL (2× final concentration), or Fumitremorgin C, a small molecule ABCG2 inhibitor at 20 uM (2× final concentration). An equivalent volume (0.05 mL) of the topotecan/antibody mixture was added to the 293T_ABCG2_OX cells in 96-well plates. The plates were then incubated at 37° C., in 5% CO2. After 72-96 hr plates were equilibrated to room temperature and cell viability assessed using Promega® CellTiter-Glo® Luminescent Cell Viability Assay according to the manufacturer's recommended protocol. Luminescence was measured on a Molecular Devices® FlexStation® 3 Multi-Mode Microplate Reader and data analyzed using GraphPad Prism 8.0 software. Half maximal inhibitory concentration (1050) is the concentration of drug (topotecan or other chemotherapy cytotoxic agent) where the response (cell growth) is reduced by 50%.

Panc1/T300 cells = test: Xenograft study with topotecan-resistant Panc1/T300 cells; assay type: in vivo
Description: PANC1 (ATCC, CRL-1469) is a pancreatic ductal epithelial carcinoma cell line. The topotectan-resistant Panc1/T300 cells were developed by continuously incubating PANC1 cells in the culture medium containing increasing concentration of topotecan of 25, 50, 100, 200 and 300 nM. […] The arrows indicate the dosing schedule.

A549 (ATCC, CCL-185) = test: Xenograft study with NSCLC cell line A549; assay type: in vivo

Molecule	Binding by FACS (ABCG2 [1]; 293T_ABCG2_OX cells)	Cynomolgus ABCG2 binding (cynomolgus ABCG2)	Block Efflux (ABCG2 [2])	Killing (293T_ABCG2_OX cells)	binding to 293T cells overexpressing human ABCG2 (ABCG2 [1])	binding to 293T cells overexpressing cynomolgus ABCG2 (cynomolgus ABCG2)	tumor volume, in combination with topotecan (Panc1/T300 cells)	efflux inhibition activity (ABCG2 [2])	effect on topotecan cytotoxicity on 293T_ABCG2_OX cells (293T_ABCG2_OX cells)	tumor volume, in combination with topotecan (A549 (ATCC, CCL-185))	Kd (ABCG2 [1]; 293T_ABCG2_OX cells, read-out: Affinity for human ABCG2)	efficacy in combination with CPT11 (Irinotecan) (A549 (ATCC, CCL-185); compared with 5D3/CPT11 combination)
G2.248 mouse: anti-ABCG2 antibody raised in mouse, listed in Table 2 (antibody, V domains shown) VH: QVQLQQPGAELVKPGASVKLSCKTSGFTFSNSYISWLKQKPRQSLEWIAWIYAGTGGTNYNQKFTGKAQLTVDTSSSTAYMQLSSLTSEDSAIYYCATYGNFLYAMDNWGQGTSVTVSS VL: DIQMKQSPASLSASVGETVTITCRASGNIHNYLAWYQQKQGKSPQLLVYNTKTLADGVPSRFSGSGSGTQYSLKINSLQPEDFGSYYCQHFWSTPWTFGGGTKLEIK	+	−	−	− (≥75% of IgG control)								
G2.256 mouse: anti-ABCG2 antibody raised in mouse, listed in Table 2 (antibody, V domains shown) VH: EVQLQQSGPELVKPGASLKISCKTFGYSFTGYYMHWVKQSPEKSLEWIGKIVPSTGGTTYNQKFKAKATLTVDKSSFTAYMQLKSLTSEDSAVYYCAREKVYGYDVYYFDYWGQGTTLTVSS VL: DIVMSQSPATLSVTPGDRVSLSCRASQSISDYLHWYQQKSHESPRLLIKYASQSISGIPSRFSGSGSGSDFTLSINSVEPEDVGVYYCQNGHSFPWTFGGGTKLEIK	+	−	−	− (≥75% of IgG control)								
G2.636 rat: anti-ABCG2 antibody raised in rat (antibody, V domains shown) VH: EVKLVESGGGLVQPGRSLKLSCAASGFTFSRFYMAWVRQAPTKGLEWVAHISHGGDTTYYRDSVKGRFTISRDNAKSTLFLQMDSLRSEDTATYYCTTSAAPWNYVMDGWGLGASVTVSS VL: DIVMTQSPSLLSASVGDRVTLTCKGSQNINNFLAWYQQKLGEAPKLLIYKTNSLHTGIPSRFSGSGSGTDYTLTISSLHSEDLATYYCYQYNNGYTFGAGTKLELK	+		++	+++ (viability <10% of IgG control)	strong binding	strong binding	efficacious in reducing tumor volume					
G2.629 rat: anti-ABCG2 antibody raised in rat (antibody, V domains shown) VH: EVQLVESGGGLVQPGRSLKLSCAASGFIFSRFYMAWVRQAPTKGLEWVAYINTGGGTTYYRDSVKGRFTISRDNAKTTLYLQMDSLRSEDTATYYCTTLAAPWNYVMDAWGQGASVTVSSA VL: DVVMTQSPSLLSASVGDRVTLTCKGSQNINNFLAWYQQKLGEAPKLLTYKTNSLHTGIPSRFSGSGSGTDYTLTISSLHSEDLATYYCYQYNNGYTFGPGTKLELK	+		+	+ (viability ≥30% and <50% of IgG control)			efficacious in reducing tumor volume					
G2.631 rat: anti-ABCG2 antibody raised in rat (antibody, V domains shown) VH: EVKLLESGGGLVQSGRSLKLSCAASGFIFSRFYMAWVRQAPRKGLEWVAYISNGAGSTYYRESVKGRFIISRDNAKSTLYLQMDSLRSEDTATYYCTTVAAPWNYVMDGWGQGASVTVSS VL: NIQITQSPSLLSASVGDRVTLSCKGSQNINNYLAWYQQKLGEAPKLLIYKTNSLHTGIPSRFSGSGSGTDYTLTISSLHSEDLATYYCYQYNNGYTFGAGTKLELK	+		+	++ (viability ≥10% and <30% of IgG control)	strong binding	strong binding		strong efflux inhibition activity	significantly increased the cytotoxic activity of topotecan	efficacious in reducing tumor volume		
G2.343 rat: anti-ABCG2 antibody raised in rat (antibody, V domains shown) VH: SVQLKESGPGLVQPSQTLSLTCTVSGFSLTSNGVSWVRQPPGKGLEWIAAISSGGSTYYNSVLKSRLSISRDTSKSQVFLKMNSLQTEDTAIYFCTRDTYYGYNQIPFVYWGQGTLVTVSS VL: DVVLAQTPPTLSATIGQSVSISCRSSQSLLHSSGNTYLNWLLQRPGQPPQLLIYLVSRLESRVPNRFSGSGSGTDFTLKISGVEAEDLGVYYCVQSTHAPRTFGGGTKLELK	+	+	+				efficacious in reducing tumor volume			efficacious in reducing tumor volume; also recorded: particularly efficacious		
G2.333 rat: anti-ABCG2 antibody raised in rat (antibody, V domains shown) VH: EIQLQESGPGLVKPSQSLSLTCSVTGYTITSGYDWTWLRKFPGNKMEWMGYISYSGFTNYNPSLRSRISISRDTSKNQFFLQLNSVTTEDTATYYCARTRGYNPFPYWGQGTLVTVSS VL: DIQMTQSPSLLSASVGDRVSLSCKAGRNVNNYLAWYQQKLGKPPKLLIYNSNSLQTGIPSRFSGSGSGTDFTLTISSLQPEDVATYFCQQYNSWTTFGSGTKLEIK	+	+	+	+ (viability ≥30% and <50% of IgG control)				strong efflux inhibition activity			33 nM	significantly exceeds the efficacy of the 5D3/CPT11 combination
G2.255 mouse: anti-ABCG2 antibody raised in mouse, listed in Table 2 (antibody, V domains shown) VH: EVMLVESGGALVKPGGSLKLSCAASGFTFSNNAMSWVRQTPETRLEWVATITGGGSYTYYPDSVKGRFTISRDNARNTLYLQMSSLRSEDTATYYCASPDGNYEGVLAYWGQGTLVTVSA VL: DIQMNQSPSSLSASLGDRVTISCSASQGISNYLNWYQQKPDGTIKLLIYYTSTLHSGVPSRFSGSGSGTDYSLTISNLEPEDIATYYCQHYSSLPWTFGGGTKLEIK	+	−	−	− (≥75% of IgG control)								
